Our source for the Kd relative to that of LEA12^93-11 values is publication PMC11501004.

This experiment deals with GST-LEA12^OR (Oryza rufipogon Griff.). The experiment in a line: MST. The settings on record: scale: fold.

B1: MBP-OsSAPK10 (natural protein)
chain: MDRAALTVGPGMDMPIMHDGDRYELVRDIGSGNFGVARLMRSRADGQLVAVKYIERGDKIDENVQREIINHRSLRHPNIIRFKEVILTPTHLAIVMEYASGGELFERICNAGRFSEDEARFFFQQLISGVSYCHSMQVCHRDLKLENTLLDGSTAPRLKICDFGYSKSSVLHSQPKSTVGTPAYIAPEVLLKKEYDGKIADVWSCGVTLYVMLVGAYPFEDPDEPKNFRKTIQRILGVQYSIPDYVHISPECRDLIARIFVANPATRISIPEIRNHPWFLKNLPADLMDDSKMSSQYEEPEQPMQSMDEIMQILAEATIPAAGSGGINQFLNDGLDLDDDMEDLDSDPDLDVESSGEIVYAM
As for B1, the Kd relative to that of LEA12^93-11 is 0.143.
